According to patent US20220073643A1 (NANJING GENSCRIPT BIOTECH, published 2022):
Positions count from the first letter of the chain named.

B1: 392C2F10 (antibody, V domains shown)
VH: EVQLQQSGPELVKPGASMKISCKASGYSFTGYTMNWVKQSLGKNLEWIGLINPFNGGTTYNQKFKGKATLTVDKSSSTAYMELLSLTSDDSAVYYCTRGDYWGQGTTLTVSS
VL: DIVMTQSPSSLTVTAGEKVTMSCKSSQSLLNSGNQKNYLTWYQQKPGQPPKLLIYWASTRESGVPDRFAGSGSGTDFTLTISSVQAEDLAVYYCQSDYSYPTFGAGTKLELK
notes: mouse hybridoma mAb
B2: 406G3C4 (antibody, V domains shown)
VH: EIQLQQSGPELMKPGASVRISCKASGYSFISYYIYWVKQSHGKGLEWIGYIDPFNGNTNYNQKFKGKATLTVDRSSSTAYIHLNSLTSEDSAVYYCAIVNGYGRGAMDYWGQGTSVTVSS
VL: QIVLTQSPAIMSASPGEKVTMTCSASSSISYMHWYQQKSGTSPKRWIYDTSKLASGVPARFSGSGSGTSYSLTISSMEAEDAATYYCQQWSSNPLTFGDGTKLELK
notes: mouse hybridoma mAb
B3: 410D9G2 (antibody, V domains shown)
VH: DVQLVESGGGLVQPGGSRKLSCAASGFTFSGFGMHWIRQTPEKGLEWVAYISSGSRPIYYADTVQGRFTISRDNPKNTLFLQMTSLRSEDTAMYFCARFYYGNSFDHWGQGTLVTVSS
VL: DIVMTQSPSFLTVTAGEKVTMSCKSSQSLLNSGNQKNYLTWYQQKPGQPPKLLIYWASTRESGVPDRFTGSGSGTDFTLTISSVQAEDLALYYCQNAYSFPLTFGAGTKLELK
notes: mouse hybridoma mAb
B4: 412B6E4 (antibody, V domains shown)
VH: DVQLVESGGGLVQPGGSRKLSCAASGFTFSSFGVHWVRQAPEKGLEWVAYISSGSSTIYYAHSVKGRFTISRDNPKNTLFLQMTSLGSEDTATYYCARFYYGNSFAYWGQGTLVTVSA
VL: B3 VL with F10S, L52M, L91V, S99T, F100Y, K109R
notes: mouse hybridoma mAb
B5: 393C2C5 (antibody, V domains shown)
VH: B4 VH with V34M, T57P, H62D, S63T, G87R, T93M, Y95F, R98T
VL: B3 VL with F10S, S28T, P46S, L91V, F100Y, L102V, A106S, L110V
notes: mouse hybridoma mAb
B6: 410H6H3 (antibody, V domains shown)
VH: DVLLVESGGGLVQPGGSRKLSCAASGFTFSSSGMHWVRQAPEKGLEWVAYISSGSNTIYYADTLKGRFTISRDNPKNTLFLQMTSLRSEDTAMYYCARIYYGNSFVYWGQGTLVTVSA
VL: B3 VL with F10S, T20I, L52M, T69R, L91V, A97N, S99Y, F100Y, A106T, E111A
notes: mouse hybridoma mAb
B7: 405G8F11 (antibody, V domains shown)
VH: B4 VH with A23V, A24T, V34M, T57P, H62D, S63T, T84S, G87R, T93M, Y95F
VL: B3 VL with F10S, S22N, P46L, I54M, L91V, Y93F, N96S, Y98F, F100Y
notes: mouse hybridoma mAb
B8: 413B1C9 (antibody, V domains shown)
VH: B3 VH with G31S, I37V, T40A, R56S, Q65K, S118A
VL: B3 VL with F10S, A15T, T20S, L30F, S32R, N37S, L91V, A97N, S99I, F100Y
notes: mouse hybridoma mAb
B9: 407H12E6 (antibody, V domains shown)
VH: B3 VH with F29V, G31S, I37V, T40A, R56S, Q65K, M93I, S118A
VL: B3 VL with F10S, A15T, P49S, A86T, L91V, Y93F, A97N, S99F
notes: mouse hybridoma mAb
B10: 410A9A9 (antibody, V domains shown)
VH: B4 VH with V34M, T57P, H62D, S63T, G87R, T93M, Y95F, R98T
VL: B3 VL with F10S, S28T, P46S, L91V, F100Y, L102V, A106S, L110V
notes: mouse hybridoma mAb
B11: 420D5H5 (antibody, V domains shown)
VH: B3 VH with F29L, A61V, Q65E
VL: B3 VL with S82R, S83G
notes: mouse hybridoma mAb
B12: 426H6E11 (antibody, V domains shown)
VH: B3 VH
VL: B3 VL with S7F, S28T, K109N
notes: mouse hybridoma mAb
B13: 411A6E3 (antibody, V domains shown)
VH: B3 VH with G31D, Q65K, A97V, Y101F, S118A
VL: B3 VL with S22T, K24R, S28N, Q35L, Y55S, A86P
notes: mouse hybridoma mAb
B14: 425C6D3 (antibody, V domains shown)
VH: B3 VH
VL: B3 VL
notes: mouse hybridoma mAb
B15: 414H6G2 (antibody, V domains shown)
VH: B3 VH with P41A, S118A
VL: B3 VL
notes: mouse hybridoma mAb
B16: 426D9F6 (antibody, V domains shown)
VH: B3 VH with Q65K, S118A
VL: B3 VL with K36R, I81V
notes: mouse hybridoma mAb
B17: 413C12F8 (antibody, V domains shown)
VH: B3 VH with M34V, S52G, Q65K, S118A
VL: B3 VL with S22N, K24R, K45R
notes: mouse hybridoma mAb
B18: 422E8F9 (antibody, V domains shown)
VH: B3 VH
VL: B3 VL
notes: mouse hybridoma mAb
B19: 419A10D4 (antibody, V domains shown)
VH: B3 VH with Q65K, S118A
VL: B3 VL with K36R, I81V
notes: mouse hybridoma mAb
B20: 430B3F1 (antibody, V domains shown)
VH: B3 VH with S55G, V116I
VL: B3 VL
notes: mouse hybridoma mAb
B21: 421H4G3 (antibody, V domains shown)
VH: B3 VH with T28S, M34L, Q65K, Y101F, S118T
VL: B3 VL with K24R, K36R, S82N
notes: mouse hybridoma mAb
B22: 419A5F3 (antibody, V domains shown)
VH: B3 VH with G54D, Q65K, A97G, S118A
VL: B3 VL with M21L, K24R, K36R, L89R, A106T, K113R
notes: mouse hybridoma mAb
B23: 411B4G4 (antibody, V domains shown)
VH: B3 VH with M34L, Q65K, S118A
VL: B3 VL with K24R, K36R
notes: mouse hybridoma mAb
B24: 411G3E10 (antibody, V domains shown)
VH: B3 VH with Q65K, S118A
VL: B3 VL with S22N, K24R
notes: mouse hybridoma mAb
B25: 420F12G8 (antibody, V domains shown)
VH: B3 VH with T28A, Q65K, A97V, S118A
VL: B3 VL with S22T, K24R, S28N, Y55S, A86P, L102F
notes: mouse hybridoma mAb
B26: 420G10G3 (antibody, V domains shown)
VH: B3 VH with P41A, S118A
VL: B3 VL
notes: mouse hybridoma mAb
B27: 425B3D5 (antibody, V domains shown)
VH: B3 VH
VL: B3 VL
notes: mouse hybridoma mAb
B28: 411G12G1 (antibody, V domains shown)
VH: B3 VH with T40A, Q65K, S118A
VL: B3 VL with L91V, A97D
notes: mouse hybridoma mAb

Target: T1, human Claudin18.2 (human)
T1 construct: also called CLDN18.2
Test: cell ELISA, Claudin18.2-expressing HEK293T cells
Outline: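 Claudin18.2-expressing HEK293T stable cells (1.5×10⁶ cells/ml in 5% skim milk/PBS blocking buffer) were incubated 1 h at room temperature in plates pre-blocked overnight at 4° C. EC₅₀ was derived by four-parameter curve fit.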

EC50 | Binder
350 nM | B1
12.6 nM | B2
4.33 nM | B3
33.1 nM | B4
4.45 nM | B5
45.5 nM | B6
~91.2 nM | B7
24.6 nM | B8
2.39 nM | B9
6.21 nM | B10
7.03 nM | B11
1.78 nM | B12
~2.6 nM | B13
1.92 nM | B14
12 nM | B15
2.14 nM | B16
3.55 nM | B17
1.88 nM | B18
2.33 nM | B19
2.56 nM | B20
2.47 nM | B21
2.61 nM | B22
2.85 nM | B23
2.45 nM | B24
2.61 nM | B25
2.39 nM | B26
2.61 nM | B27
3.47 nM | B28
